The values that follow come from IntAct's records for PubMed 19122675.

The chains are these.
B1: Calmodulin-binding transcription activator 3 (Arabidopsis thaliana (Mouse-ear cress)), Q8GSA7 (parent)
chain: MAEARRFSPVHELDVGQILSEARHRWLRPPEICEILQNYQRFQISTEPPTTPSSGSVFMFDRKVLRYFRKDGHNWRKKKDGKTVKEAHERLKAGSVDVLHCYYAHGQDNENFQRRSYWLLQEELSHIVFVHYLEVKGSRVSTSFNRMQRTEDAARSPQETGDALTSEHDGYASCSFNQNDHSNHSQTTDSASVNGFHSPELEDAESAYNQHGSSTAYSHQELQQPATGGNLTGFDPYYQISLTPRDSYQKELRTIPVTDSSIMVDKSKTINSPGVTNGLKNRKSIDSQTWEEILGNCGSGVEALPLQPNSEHEVLDQILESSFTMQDFASLQESMVKSQNQELNSGLTSDRTVWFQGQDMELNAISNLASNEKAPYLSTMKQHLLHGALGEEGLKKMDSFNRWMSKELGDVGVIADANESFTQSSSRTYWEEVESEDGSNGHNSRRDMDGYVMSPSLSKEQLFSINDFSPSWAYVGCEVVVFVTGKFLKTREETEIGEWSCMFGQTEVPADVISNGILQCVAPMHEAGRVPFYVTCSNRLACSEVREFEYKVAESQVFDREADDESTIDILEARFVKLLCSKSENTSPVSGNDSDLSQLSEKISLLLFENDDQLDQMLMNEISQENMKNNLLQEFLKESLHSWLLQKIAEGGKGPSVLDEGGQGVLHFAASLGYNWALEPTIIAGVSVDFRDVNGWTALHWAAFFGRERIIGSLIALGAAPGTLTDPNPDFPSGSTPSDLAYANGHKGIAGYLSEYALRAHVSLLSLNDKNAETVEMAPSPSSSSLTDSLTAVRNATQAAARIHQVFRAQSFQKKQLKEFGDKKLGMSEERALSMLAPKTHKSGRAHSDDSVQAAAIRIQNKFRGYKGRKDYLITRQRIIKIQAHVRGYQFRKNYRKIIWSVGVLEKVILRWRRKGAGLRGFKSEALVEKMQDGTEKEEDDDFFKQGRKQTEDRLQKALARVKSMVQYPEARDQYRRLLNVVNDIQESKVEKALENSEATCFDDDDDLIDIEALLEDDDTLMLPMSSSLWTS

This experiment covers variants of B1. Particulars: with calm5_soltu PCM5, Q7DMN9.
For K907E, the “effect of a mutation on the interaction” value was “disrupting interaction”.
